Assay [1] addresses Mdm2 (Homo sapiens, UniProt Q00987). Kind of assay: Co-immunoprecipitation of p19ARF forms with Mdm2. On the set-up: expressed in transfected cells; host or cells: 293T. It counts as cell-based. The conditions noted are these: forced expression of Mdm2 and wt or Δ62 p19ARF.
A further assay concerns p53. Put plainly: p53 ubiquitination and p53 level in EJ cells. In kind it is cell-based, mouse. The text has this:
(§1) FIG. 14A-14E. A. In vitro ubiquitination of Mdm2 is inhibited by p19^ARF. GST-Mdm2 was subjected to an in vitro ubiquitination reaction using purified forms of E1, E2 and Ub-HA in the presence of ATP. Addition of bacculovirus-purified p19^ARF at the indicated concentrations blocked Mdm2 ubiquitination. Glutathione bead-coupled GST-Mdm2 in its ubiquitinated or non-ubiquitinated forms was washed and analyzed on immunoblots using antibodies to HA (upper panel). Middle panel depicts the level of Mdm2 expression and the lower panel, the level of p19^ARF added to the reaction. B. p19^ARF expression increases Mdm2 self-ubiquitination in EJ cells. EJ cells were transfected with the indicated plasmids. Cells were harvested 36 h later and proteins ([…]) were immunoprecipitated using Mdm2 antibodies (2A10). Immunoprecipitated material was washed and proteins loaded onto 10% SDS-PAGE, followed by immunoblot analysis with HA-antibodies to detect covalent HA-ubiquitin conjugation to Mdm2 (upper panel). Middle panel depicts level of immunoprecipitated Mdm2. Lower panel represents western analysis of p19^ARF expression levels. C. In vitro ubiquitination of Mdm2 in the presence of p19^ARF and protein extracts. […] The level of p53 immunoprecipitated was monitored in immunoblots using polyclonal antibodies to p53 (middle). […]

Assay [2] relates to Mdm2. Put plainly: In vivo ubiquitination of Mdm2 in EJ cells (HA-Ub, Mdm2 immunoprecipitation). Conditions: forced expression in EJ p19 null cells. It counts as cell-based, mouse.
From the text: as §1

Chain of Mdm2 (Homo sapiens, UniProt Q00987) (Q00987 whole entry): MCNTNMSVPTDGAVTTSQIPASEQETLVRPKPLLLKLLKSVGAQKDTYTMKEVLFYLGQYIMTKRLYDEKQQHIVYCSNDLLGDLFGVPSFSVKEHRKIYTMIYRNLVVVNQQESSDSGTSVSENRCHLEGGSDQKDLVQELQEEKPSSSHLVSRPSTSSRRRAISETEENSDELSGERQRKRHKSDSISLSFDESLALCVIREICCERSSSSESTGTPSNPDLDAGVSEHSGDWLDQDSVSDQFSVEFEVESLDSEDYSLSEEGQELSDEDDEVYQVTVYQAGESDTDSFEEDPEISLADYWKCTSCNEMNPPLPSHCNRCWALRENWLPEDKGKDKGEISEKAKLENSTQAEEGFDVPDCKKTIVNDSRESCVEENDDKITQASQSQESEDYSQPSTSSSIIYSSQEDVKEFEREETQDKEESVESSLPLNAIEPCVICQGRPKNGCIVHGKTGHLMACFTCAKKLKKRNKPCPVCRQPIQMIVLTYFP

B1: p19^ARF: Mdm2-regulating protein; in vitro translated, bacculovirus-expressed or transfected (protein)
chain: MGRRFLVTVRIQRAGRPLQERVFLVKFVRSRRPRTASCALAFVNMLLRLERILRRGPHRNPGPGDDDGQRSRSSSSAQLRCRFELRGPHYLLPPGARRSAGRLPGHAGGAARVRGSAGCARCLGSPAARLGPRAGTSRHRAIFAFRWVLFVFRWVVFVYRWERRPDRRA
Regarding B1, the “complex of p19ARF form with Mdm2” value with Mdm2 [1] was “only the wt form in complex with Mdm2”. Besides, the “levels of p53” value with p53 is given as “elevated levels of p53”. Further, the “degree of p53 ubiquitination” value in the assay on p53 (Flag-Mdm2, wt p53, HA-Ub, p19ARF constructs 1 μg each) is “noticeable decrease in the degree of p53 ubiquitination”. Besides, the “degree of Mdm2 ubiquitination in vivo” value in the assay on Mdm2 [2] is reported as “noticeable increase in the degree of Mdm2 ubiquitination”.

The record behind these values is patent US20020031818A1, “Modification of Mdm2 activity” (priority 2000, published 2002).
